Data from article PMC5070119, “Oligomeric interface modulation causes misregulation of purine 5´-nucleotidase in relapsed leukemia” (BMC Biology, 2016).
Substitutions are numbered along the chain they refer to. Numbers in names are those of the source.

B1: cytosolic purine 5'-nucleotidase (cN-II), full-length wild type (enzyme, human, UniProt P49902 1-561, looked up)
chain: MSTSWSDRLQNAADMPANMDKHALKKYRREAYHRVFVNRSLAMEKIKCFGFDMDYTLAVYKSPEYESLGFELTVERLVSIGYPQELLSFAYDSTFPTRGLVFDTLYGNLLKVDAYGNLLVCAHGFNFIRGPETREQYPNKFIQRDDTERFYILNTLFNLPETYLLACLVDFFTNCPRYTSCETGFKDGDLFMSYRSMFQDVRDAVDWVHYKGSLKEKTVENLEKYVVKDGKLPLLLSRMKEVGKVFLATNSDYKYTDKIMTYLFDFPHGPKPGSSHRPWQSYFDLILVDARKPLFFGEGTVLRQVDTKTGKLKIGTYTGPLQHGIVYSGGSSDTICDLLGAKGKDILYIGDHIFGDILKSKKRQGWRTFLVIPELAQELHVWTDKSSLFEELQSLDIFLAELYKHLDSSSNERPDISSIQRRIKKVTHDMDMCYGMMGSLFRSGSRQTLFASQVMRYADLYAASFINLLYYPFSYLFRAAHVLMPHESTVEHTHVDINEMESPLATRNRTSVDFKDTDYKRHQLTRSISEIKPPNLFPLAPQEITHCHDEDDDEEEEEEEE
notes: cytosolic purine 5'-nucleotidase (cN-II), human, EC 3.1.3.5, 561 residues; full length made by ligating a synthetic C-terminal tail into the truncated construct; Homotetramer; also called wild-type cN-II; NT5C2 product
B2: cytosolic purine 5'-nucleotidase (cN-II) L375F, full-length (enzyme, human, UniProt P49902 1-561, looked up)
chain: B1 chain with L375F
notes: cytosolic purine 5'-nucleotidase (cN-II), human, 561 residues, with the relapsed-ALL somatic mutation L375F; Mutation found in patients with relapsed ALL; Homotetramer; also called L375F mutant
B3: cytosolic purine 5'-nucleotidase (cN-II) R238W, full-length (enzyme, human, UniProt P49902 1-561, looked up)
chain: B1 chain with R238W
notes: cytosolic purine 5'-nucleotidase (cN-II), human, 561 residues, with the relapsed-ALL somatic mutation R238W; Mutation found in patients with relapsed ALL; Homotetramer; also called R238W mutant
B4: cytosolic purine 5'-nucleotidase (cN-II) R367Q, full-length (enzyme, human, UniProt P49902 1-561, looked up)
chain: B1 chain with R367Q
notes: cytosolic purine 5'-nucleotidase (cN-II), human, 561 residues, with the relapsed-ALL somatic mutation R367Q; Mutation found in patients with relapsed ALL; Homotetramer; also called R367Q mutant

Biological target: the molecule itself
Assay: SEC; Superdex 200 10/300 GL, 50 mM sodium phosphate pH 7.4, 100 mM NaCl, 2 mM TCEP; 200 ul of 0.5 mg/ml protein; calibrated with high molecular weight standards

Stoichiometry N, 4:
B1
B2
B3
B4
